According to the DeepSol protein solubility set:

assay: soluble on expression in E. coli; label from the status in PepcDB or PDB records

Sequence | soluble on expression in E. coli
MGSDKIHHHHHHMPPLSIPADQYLRLSDKSQVRCYRSHFSDRMEMLAPPKNVAAYLDHHQGWFQRCAAPMEVKALDDQSYLLTLGRFGNFGFEVEPCIGLKLLPQQQGLYQIINVDLTHQDLPLCDHYDVDFKAGLKLEPSETEASNTVQQTTIVNWDLDLSVWIQLPKVITLLPDGLVQTSGDQLLRQVVRQISRRLTWKVQEDFHATHGLTCPPRRHAAF | not soluble
MGSDKIHHHHHHMPPPVRVNWPRMRTTRRQTVTTWVGNVPVGSSHPIVVQSMTNTDTANAEATALQVAQLARAGSEIVRVTVNTREAAAALPEIVARLHDLGLDVPLVGDFHYNGHLLLREYPETARLLAKYRINPGNVGAGQHHDANFATMIEVAKTYGKPVRIGVNWGSLDQQVLARLMDENARRGSPKSGTDVMIDAMVTSALESAAYAEGLGLPHDRIIISVKVSSAPELWQVYRQLAPLCDYPLHLGLTEAGMGMKGMVASSVALAPLLSEGIGDTIRVSLTPEPGAPRKLEVEVAQQILQSLGLRQFLPQVTSCPGCGRTTSTFFQELARKIQDYIRDAMPEWKAKYPGVEDMQVAVMGCIVNGPGESKHANIGISLPGTGEDPRAPVYQDGKLLTTLKGPRIAEDFQELLEKYVEERYGHKSAHTTVQE | not soluble
MGSDKIHHHHHHMPQEPESGADLPSDRTAVFPTPEGPPLPKQVTLQAAKWLVMLQAPNTTQATRAKWQQWRDVHPDHERAWQHIEASATQMRAMHSPLAHGTLIRDDTEKRHARRRAIKLLGVIAFTGTSTWLLRDNPVWREWHADHRTATSERRTIVLADGTRIMLNTASIIDVHFDNAIRLVTLIRGEILVTTAPDSASGTGQPFIVETDQGRLRALGTRFAVRQRENDSHVSLFEGMVEIRPADASDQARVLQAGEQISFTRNAIETPQTIDTHAASWVTGMLVVQEMPLTDFIDELARYRPGYLSCDPELSHLKVSGIYPIEDTERVLDMLLHVHPIEIYSLTRYWVAIRARGDR | not soluble
MGSDKIHHHHHHMPQYTVYLAPAGYEQDLIDELGPRVIDVRGRLVRASGGPRHAAWAQNIWLDPVEMRIGSIGDAATRLKGIQRNWFLHAVDHHRRAALIAGKLPHVSARPHVFGTPAPTAPLGSWTLWEHDLVIASARCSSPFPDGEVHFVENRIDPPTRAYLKLWETFTRLGVQPAPGELCLDMGSCPGGWTWVLAGLGARVFSVDKADIAPHIAAMPNVNFCTGSAFGLDPQHAGAVDWFFSDVICYPDRLLATVQRWLERGQCRNFVCTLKFQATTDHATAAAFAAIPGSQLFHLAHNKHELTWVLLRDKA | not soluble
MGSDKIHHHHHHMPRPRRTQISLEDTPFYHCCSRVVRRAFLCGDDSYSGKNYDHRRAWVESLLFELEAVFAIDVVAFAVMSNHLHVVLRIDVETANRWSDREVLEQWHKLFKGDELTQKFAKGGLVEADEVNRLRHSIAIYRSRLCDISWFMRCLNEPIARQANQEDNCTGRFWEGRFKSQALLDEAAVLACMTYVDLNPIRAQMADTLEQSAHTSIQLRIQAALKDEQPKNLLPFIGNERDNQPIGITFSLIDYLQLVDDTGRIIRNDKLGAITENSAKLLTRLNIHHDNWLKLTTEFGKLFHGPVGTLQELTDYCEHLEKRRRHFAKCCQHLNAG | not soluble
MGSDKIHHHHHHMPRQMRPDIADIRTGADLRQWYWRKDELVAHARTLGLKRSGAKFTILDRIAHFLDTGARDLPEAPAPKPTSDFDWHSAKLTPDTILTDSYKNTQNVRRFFKAQLGPRFAFSIPLMAWLKENSGKTLSDACAVWRDLQAERRRPGWQSDIKGHNQFNQYTRDFLAAHPDLGMDDVRRVWARKIQQPSPDGRHIYEPSDLDL | not soluble
MGSDKIHHHHHHMPRSARIDIPNLLQHVIVRGIERRDIFLSDDDRWDFRNRLQKLLLEMDVDCLAWSLMSNHFHLLLRPTRTPLAPFMRRLLTGYAVSFNLRHNRSGHLFQNRYKSIVCDEDSYLLELVRYIHLNPLRAGIVADLGALDTFPWSGHAMLMGKIVLEGQGINEVLRYFGPGVSASRRTYREFMADGVLQGERPDLVGKRSGASGGGCPASDRRILGDENFVEQLKTEECLHQQLRRPMSIESIVATIADQYGVAPKAIASKSRLPRTLDARAVVCYTAVEEGHTGAEVGRVLGMTRSGVAIARRRGEEVLARIESTAEFQHDTRLDSTN | not soluble
MGSDKIHHHHHHMPTLEPKIPGISLNYVVPTPEPELLTGVPVFFGLVTEEVKEAKKLTLATHFQQYFGQAKGYLADAIKGFFENGGRLCYVIALSNNTLEALQQGLETSEVLENIDLICVPDIMLGSDGEVIQMQQAILKHCEQMGDRFAILDALNDIGKLNEQRKRISSQNGALYAPWLKVEFRVDPIPACGHIAGIYASCDRTVGVHGAPANIPLAGVLDLSFSLTPTDQEQLNPKNEAGVNCIRSFQGRGMRVWGVRTLSPIPEWQYVNVRRLFLTFGRWVNRNLADTVFEPNAFPLWVRLQRELSIYCESLWRQGAIQGALPQEAFYVKCDAETNPPENREMGQVIAEIGLAPTIPGEFIQLLVVQSSSGITLT | not soluble
MGSDKIHHHHHHMPTLLMITPENSEINKFKAHQLNNFTQLTMPYLAGFVPEEYSIRLLDEYTEPILFEKVDLVAITVNTPNAPHVYSVSKRFRELGAWVALGGPHVTLNPEEAACHGDTIFVGEAEETWPEFLKDFLSGNMQKVYTSLQVPSLDGLPIPRRDLIVGHRFTSGAVFASRGCPHHCSYCSLKKIYHNKLRTRPVDEVIKDIGSMPNKYFVFWDDNFFADPVYTKALLKELARLNKRWAAQVTAYSCEDEELLSLAKSAGCLYLFLGLESFSEQGLRDANKNFNKIEEYGKVVNKLHRHGISIQAGIVFGFDSDTLDVFETTLKACNKIGVDGVTASILTPFPGTSIYEQYKKEGRLLDVDWDHYNGKTRVAYVPKRMNCKELLNGYNEFRGKFHSWRSIVKRISKSRVNIFYSLAMNYGYKRAYRNFTRLGIGERSDESLGQRMEQHLRNWPR | not soluble
MGSDKIHHHHHHMPVAKKYFEIRWHGRAGQGAKSASQMLAEAALEAGKYVQAFPEYGAERTGAPMRAFNRIGDEYIRVRSAVENPDVVVVIDETLLSPAIVEGLSEDGILLVNTVKDFEFVRKKTGFNGKICVVDATDIALQEIKRGIPNTPMLGALVRVTGIVPLEAIEKRIEKMFGKKFPQEVIDANKRALRRGYEEVKCSE | soluble
MGSDKIHHHHHHMQEDISRKSPMLSNIKSWYRRRIIENHSVPDDIWQNAIARLRFLQALEAVELERLRECVVLFLHVKQISGAHGLVITDEMRVLIAAQACILILNLDLDYYDGWVEIIVYPGEFIRDYEYVDEDGIVHHAVEPASGESWLGGPVILSWEDAVAAVSGTEISQGYNVVIHEFAHKLDMLNGEANGFPPIHPDMSRQAWSEAFSKAYADFCRSIDAGEMMEIDLYAAESPAEFFAVISEAFFEMPISVRIHFPAVYEQLALFYRQDPAQRRSEP | not soluble
MGSDKIHHHHHHMQKLTLKEVQAKAVEILVYIDNICRSNNLHYTLFYGTLIGVERHKGFIPWDDDIDIVMPRPDYELLIKILKNDSNYQLLSFETRKHFRYPFAKLVDPNTVAHSKQYFGGEDKDLGVFVDIFPIDGIPDTQKERNELRKITEQYRLNLMDTLGLSYARSFHLSKALIKLITRYPNHFKVKKVGNNQYWRDLYQTEAKKTPFGATKHCGYLEWIHIDWGVFPNEWFLEYEDVEFEGHKFMAIKNRKQFLTLRYGDYMEMPPVEERITHHPYDFYQK | not soluble
MGSDKIHHHHHHMQKRHKDRQCYFNELANTSRSFYIDYVKQFISLSPSTHILEIGCGEGGNLLPFAELGCKVTGIDRAASRIHQAETFFTASGYKGEFTTTDFFNFSSASRYQLILIHDVIEHISNKEEFFRCLSPLLAKRGIIFWGFPSWQMPFGGHQQICHNRFVSSLPFIHLCPGILYRFLLRCFHETPSCIEELSDIKRCRMTIDTFEQLAEKYGYEITDRQLWFINPHYQQKFHLRPRKLYPVLAQLKYIRNYFSTSCFYITRHRELHD | not soluble
MGSDKIHHHHHHMQLGTGLFTCQQRPDDDRETSEIYDEMLELGEVIDNAGLDSAWVSEHHFLDDDYLSGVTPALGALAAVTDNIEIGSCIALAPLYDSIRLAEDIATVDQISGGRTTLGMAIGSNVSEFDAFGIPDDERAERLADAVDTLRGAWSDGPLDYEPEFHDISSDVTVTPKPAHDVPLMLGGASRPAVRRAARTADAWCAPSSLSVDGVRKRVEDIRNVRDDEDIEGDFQVYVLQHGFIGDSREDAWAQMRDGYLYIQRRYEEIFSGETVAELDEERKQELKEQAIFGTPDQVTAELESYREALGDDIHFIFRTYHPGTGTQEMAECIRRLGEEVQPKIS | not soluble
MGSDKIHHHHHHMQSLYTSASTMAQLQKQLDTTGHNLANANTNGYKRRDSQFNELLVRNLNNQPAGLTPGSLTTPAGLRLGVGGYVANEATRFATGTFQNTGRKLDAALSNPHHFFGVIDADGVTKFTRDGNFELSPQANGQVLLTDDAGRSVINQANEPITFPDDATSIELNKDGNITGVLNGERRVLARIGVADIPNHGELTDVGGGLYTTAGQYQNATGNPLTVGTLETSNVDMATEMTNLTQIQRAYQFNSKALTTSDQMMGIVTSLK | not soluble
MGSDKIHHHHHHMQTIQLSNIFKQQAHQTILKDFTLTIPAQSNIGIQMSHVEATTLFNLLRQTTPQTSGVMTGLTPARIQAIFHDDGFYPQLTVSTYLKTFQHISTFETDLDDILQYFALKDVAHTKIKHLSFDQQQRLALLRAFILQPDLLLIESPLTNLTNAGIELYLAALAYTREHGVTVLLTSYSLEELVLTSTTIFRYRPNQGLELTDLATESSSDSAHTSEDTPRPIFKIASKVEDKTVFFSPNEIDFIESVNGVSQLNVSGEQFTSSQTMSELEQQLTTLGFFRCHRSYLVNLQQIAELISYSRNSYTLILKNKSKLPLSRGKLTDLKALINF | not soluble
MGSDKIHHHHHHMQVEQRTLNTAAHPFQITAYWLDQISDFETAVDYPIMIICPGGGFTYHSGREEAPIATRMMAAGMHTVVLNYQLIVGDQSVYPWALQQLGATIDWITTQASAHHVDCQRIILAGFSAGGHVVATYNGVATQPELRTRYHLDHYQGQHAAIILGYPVIDLTAGFPTTSAARNQITTDARLWAAQRLVTPASKPAFVWQTATDESVPPINSLKYVQAMLQHQVATAYHLFGSGIHGLALANHVTQKPGKDKYLNDQAAIWPQLALRWLQEQGLLAGNY | not soluble
MGSDKIHHHHHHMQVRDFIKHLKNGERPPLTLILGEESALRQQAQHAIASMIPEDQQAMNFGRYDMQQTPVGAALNDATSMPFFGDYREVVIDDPYFLTGEKNADKIDHDLAGLQAYFENPVPSTMMVIIAPYKKLDERKRLTKALKKAALIVNAAPLDEREARAALAQTFKKHQVTIDAPALDTLVQRTNGQYSIMMGEVRKLLTYASDGSPLTVAAVEALVPKQLNDRVFDLVTDVLRKNAAAALALYRDLLAQREEPIRLNALMLGQFRLLLQVKLLAKKGYSQGDIAGTLKAHPYRVKLAMRQVDRLPYQQLATAYSGLVDTETAMKTGTIDKALAFELFMLKYTGQQSGKHVRG | not soluble
MGSDKIHHHHHHMQVRIERAERIESELEEHVGDQTFVEESRFLEEDEQREGEILDQIIFVDGKRRSFVRITTDEGITGIFAELCVGAVIWDREGGTKTLFSPDKPPVKERVLGFSQSFQEEGYEEVGGILFKVVKEGKDAMQSIDLYMRSLEIEEVRKHMDKNILIVKDGPAARELPFEENVGPIGLVKNIGVTELSKEDFKKLRFLKKGKRSKMFVSSRETPLKKVGAYVKLIDGEGIRGLVRLETYVKDDNQIPYIRKVFDDLAKTLPHLTADLPIPRLPENILPIQFLEENLSYYLTDKNYMNTRLFAYIGR | soluble
